Data taken from patent US20060002929A1.

Experiments:
Human Fc-OX40L (human) [1] = biological target: Human Fc-OX40L (human) (UniProt P23510); experiment: BIAcore, immobilized hFc-OX40L
Human Fc-OX40L (human) [2] = biological target: Human Fc-OX40L (human) (UniProt P23510); experiment: cell-based or functional assay

Chain of Human Fc-OX40L (human) (P23510 51-183 limits assumed): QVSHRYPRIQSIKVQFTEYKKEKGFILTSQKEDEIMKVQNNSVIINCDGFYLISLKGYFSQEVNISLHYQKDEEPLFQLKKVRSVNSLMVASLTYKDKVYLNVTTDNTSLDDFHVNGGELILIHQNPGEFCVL

EC50 (Human Fc-OX40L (human) [1]): 0.4 nM | Costimulation Value (IC50), T cell proliferation (3H-thymidine) (Human Fc-OX40L (human) [2]): 3.2 | IL-2 Inhibition (IC50 [nM]) (Human Fc-OX40L (human) [2]): 0.22 nM
B1: Ab G (antibody, part only; not given: light chain, part only)
heavy: MEFGLSWIFLAAILKGVQCEVQLVESGGGLVKPGGSLRLSCAASGFTFSNAWMSWVRQAPGKGLEWIGRIKSKTEGGTTDYGAPVKGRFTISRDDSKNTLYLQMNSLKTEDTAVYSCTTDFLWFGEFPFDYWGQGTLVTVSSASTKGPSVFPLAPCSRSTSESTAALGCLVKDYFPEPVTVSWNSGALTSGVHTFPAVLQSSGLYSLSSVVTVPSSNFGTQTYTCNVDHKPSNTKVDKTVERKCCVECPPCPAPPVAGPSVFLFPPKPKDTLMISRTPEVTCVVVDVSHEDPEVQFNWYVDGVEVHNAKTKPREEQFNSTFRVVSVLTVVHQDWLNGKEYKCKVSNKGLPAPIEKTISKTKGQPREPQVYTLPPSREEMTKNQVSLTCLVKGFYPSDIAVEWESNGQPENNYKTTPPMLDSDGSFFLYSKLTVDKSRWQQGNVFSCSVMHEALHNHYTQKSLSLSPGK
